The values below come from patent US9962447B2, “Supramolecular aggregates comprising maleimido cores” (UFPEPTIDES S.R.L., priority 2013, dated 2018).

The subject of test [1] is spontaneous locomotor activity. As to the kind of experiment: Mouse locomotor activity, CD-1 mice, i.c.v. The test is classed as in vivo.
For a further test, the target named is human NOP receptor (Homo sapiens, UniProt P41146). Briefly: Calcium mobilization in CHO cells expressing human NOP receptor and Gαqi5. It is filed as cell-based. The note with it: inactive = inactive up to 1 μM. As for the experimental part:
Cells were maintained in culture medium consisting of Dulbecco's MEM/HAM'S F-12 (50/50) supplemented with 10% foetal calf serum, penicillin (100 IU/ml), streptomycin (100 μg/ml), fungizone (2.5 μg/ml), geneticin (G418; 200 μg/ml) and hygromycin B ([…]). Cell cultures were kept at 37° C. in 5% CO2 humidified air. In all cases experimental cultures were free from selection agents (hygromycin B, G418). When confluence was reached (3-4 days), cells were sub-cultured as required using trypsin EDTA and used for experimentation. Cells were seeded at a density of 50,000 cells/well into 96-well black, clear-bottom plates. After 24 hours incubation the cells were loaded with medium supplemented with 2.5 mM probenecid, 3 μM of the calcium sensitive fluorescent dye Fluo-4 AM and 0.01% pluronic acid, for 30 min at 37° C. Afterwards the loading solution was aspirated and 100 μl/well of assay buffer: Hank's Balanced Salt Solution (HBSS) supplemented with 20 mM HEPES, 2.5 mM probenecid and 500 μM Brilliant Black (Aldrich) was added. […] On-line additions were carried out in a volume of 50 μl/well. […]
(§1) Four mice were monitored in parallel. […] Animals locomotion was recorded for 60 min.
(Calcium flux is commonly read through the fluorescence of an indicator in the cells.)

The test system of test [2] is vas deferens tissues taken from NOP(+/+) mice. Briefly: Electrically stimulated vas deferens from NOP(+/+) mice. Details: species or system mouse.
Protocol: The bath temperature was set at 33° C. Tissues were continuously stimulated through two platinum ring electrodes with supramaximal rectangular pulses of 1 ms duration and 0.05 Hz frequency. A resting tension of 0.3 g was applied to the vas deferens. […] Following an equilibration period of 60 min, the contractions induced by electrical field stimulation were stable.
For test [3], the system named is vas deferens tissues taken from NOP(−/−) mice. As to the kind of experiment: Electrically stimulated vas deferens from NOP(−/−) mice. Details: species or system mouse. The note with it: CL95% in brackets. As for the experimental part: The mouse vas deferens were prepared as previously described (Calto et al., Eur J Pharmacol. 311, (1996) R3-5). Tissues were suspended in 5 ml organ baths containing heated Krebs solution (composition in mM: NaCl 118.5, KCl 4.7, KH2PO4 1.2, NaHCO3 25, glucose 10 and CaCl2 2.5) oxygenated with 95% O2 and 5% CO2. The bath temperature was set at 33° C. Tissues were continuously stimulated through two platinum ring electrodes with supramaximal rectangular pulses of 1 ms duration and 0.05 Hz frequency. A resting tension of 0.3 g was applied to the vas deferens. The electrically evoked contractions (twitches) were measured isotonically with a strain gauge transducer (Basile 7006, UgoBasile s.r.l., Varese, Italy) and recorded with the PC based acquisition system Power Lab (ADInstrument, USA). Following an equilibration period of 60 min, the contractions induced by electrical field stimulation were stable.

The test system of test [4] is electrically stimulated mouse vas deferens. Briefly: Electrically stimulated mouse vas deferens. As for the experimental part:
The bath temperature was set at 33° C. Tissues were continuously stimulated through two platinum ring electrodes with supramaximal rectangular pulses of 1 ms duration and 0.05 Hz frequency. A resting tension of 0.3 g was applied to the vas deferens.
assuming a slope value equal to unity, where CR indicate the ratio between agonist potency in the presence and absence of antagonist.

The test system of test [5] is locomotor activity of NOP(−/−) mice. Briefly: Locomotor activity of NOP(−/−) mice. As to conditions: 0.25 nmole, 120 min post injection.
Protocol: (§2) Mice were positioned in a square plastic cage (40×40 cm), one mouse per cage. Four mice were monitored in parallel. Mouse horizontal activity was monitored by a camera while vertical activity was measured by an infrared beam array. Animals locomotion was recorded for 60 min.
(§3) In vivo data are expressed as mean±sem of n animals. Data were analysed using one-way analysis of variance (ANOVA) followed by Dunnett post hoc test. Differences were considered statistically significant when p<0.05.
For a further test, the target named is MOP receptor (Homo sapiens, UniProt P35372). As to the kind of experiment: Calcium mobilization in CHO cells expressing MOP receptor and Gαqi5. It is filed as cell-based. The note with it: inactive = inactive up to 1 μM. As for the experimental part:
Cell cultures were kept at 37° C. in 5% CO2 humidified air. In all cases experimental cultures were free from selection agents (hygromycin B, G418). When confluence was reached (3-4 days), cells were sub-cultured as required using trypsin EDTA and used for experimentation. Cells were seeded at a density of 50,000 cells/well into 96-well black, clear-bottom plates. After 24 hours incubation the cells were loaded with medium supplemented with 2.5 mM probenecid, 3 μM of the calcium sensitive fluorescent dye Fluo-4 AM and 0.01% pluronic acid, for 30 min at 37° C. Afterwards the loading solution was aspirated and 100 μl/well of assay buffer: Hank's Balanced Salt Solution (HBSS) supplemented with 20 mM HEPES, 2.5 mM probenecid and 500 μM Brilliant Black (Aldrich) was added. […] On-line additions were carried out in a volume of 50 μl/well. To facilitate drug diffusion into the wells in antagonist type experiments, the present studies were performed at 37° C. and three cycles of mixing (25 μl from each well moved up and down 3 times) were performed immediately after antagonist injection to the wells.
as §1

In test [6] the test system is locomotor activity of NOP(+/+) mice. Briefly: Locomotor activity of NOP(+/+) mice. As to conditions: 0.25 nmole, 120 min post injection.
Protocol: as §2, §3

Chain of human NOP receptor (P41146 whole entry): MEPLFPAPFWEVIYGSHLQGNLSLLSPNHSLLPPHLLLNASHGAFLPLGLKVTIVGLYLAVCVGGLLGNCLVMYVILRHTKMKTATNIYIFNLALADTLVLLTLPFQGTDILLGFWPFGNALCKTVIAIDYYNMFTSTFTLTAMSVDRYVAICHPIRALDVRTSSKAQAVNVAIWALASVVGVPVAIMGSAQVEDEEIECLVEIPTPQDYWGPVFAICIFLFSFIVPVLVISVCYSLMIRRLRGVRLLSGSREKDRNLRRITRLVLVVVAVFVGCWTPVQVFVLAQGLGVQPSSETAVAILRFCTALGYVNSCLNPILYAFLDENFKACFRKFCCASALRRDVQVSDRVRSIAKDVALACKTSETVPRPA
Chain of MOP receptor (P35372 whole entry): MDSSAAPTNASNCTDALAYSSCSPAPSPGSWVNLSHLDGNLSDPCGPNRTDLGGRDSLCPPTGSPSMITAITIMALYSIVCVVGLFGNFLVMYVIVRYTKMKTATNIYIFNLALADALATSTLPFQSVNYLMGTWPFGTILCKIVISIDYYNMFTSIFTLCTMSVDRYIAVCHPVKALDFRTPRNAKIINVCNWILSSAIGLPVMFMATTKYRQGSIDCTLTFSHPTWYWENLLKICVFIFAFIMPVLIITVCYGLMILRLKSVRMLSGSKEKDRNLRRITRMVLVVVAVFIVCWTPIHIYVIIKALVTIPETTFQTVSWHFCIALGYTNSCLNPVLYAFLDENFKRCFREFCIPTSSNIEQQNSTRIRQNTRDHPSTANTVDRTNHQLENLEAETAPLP

B1: PWT2-N/OFQ: supramolecular aggregate of maleimido core PWT2 with nociceptin/orphanin FQ, made from PWT2 and [Cys18]N/OFQ-NH2 by thiol-Michael addition (conjugate)
peptide: SCQRDCLTCQEKLHPALDSFDLEVCILECEEKVFPSPLWTPCTKVMARSSWQLSPAAPEHVAAALYQPRASEMQHLRRMPRVRSLFQEQEEPEPGMEEAGEMEQKQLQKRFGGFTGARKSARKLANQKRFSEFMRQYLVLSMQSSQRRRTLHQNGNVC
Broadly, the pEC50 is the negative decadic logarithm of the EC50, by convention in mol/L. The Emax is the greatest response seen or fitted, relative to the assay's reference. Consider B1, for which, in test [1] (i.c.v. at 11 AM, N/OFQ 10 nmole, PWT2-N/OFQ 0.25 nmole, measured 3 PM to 9 AM), the “locomotor activity in overnight experiment” value was “statistically significant reduced distance travelled and rearing behaviour associate with increased immobility time for the whole time course of the experiment”. In addition, the “acute effects on spontaneous locomotor activity” value in test [1] (i.c.v., CD-1 mice, recorded for 120 min) was “slow onset of action and prolonged effects compared to the natural peptide”. Moreover, the “pEC50 (CL95%)” value in the test with human NOP receptor turned out to be 8.83. Besides, the pEC50 in test [2] (CL95% in brackets) is 7.92; in test [3], 5.85 (5.55-6.15); in test [4] (inhibition of twitch response, CD1 mouse vas deferens, CL95% in brackets), 7.78 (7.57-7.99); with MOP receptor, “inactive”. The maximal effect (Emax) is listed as 91 ± 2% in test [2] (maximal inhibition of electrically induced contractions) and 93 ± 2% in test [4] (% inhibition of control twitch). For the same molecule, in test [4], the “reversal of inhibitory effect after washing the tissue” value was “rather resistant to washing”. Also, the “onset of inhibitory effect” value in test [4] (after adding to the bath) is on record as “slow inhibitory effect”. Besides, the “time for inhibitory effect to reach the plateau” value in test [4] (mouse vas deferens) turned out to be 10 min. The “Distance travelled (m)” value is given as 203 ± 26 m in test [5] and 104 ± 19 m in test [6]. Moreover, the “Immobility time” value was 2372 ± 525 s in test [5] and 3305 ± 390 s in test [6]. The results for the “Rearings (n)” value in test [5] and in test [6] were 625 ± 181 n and 96 ± 19 n, respectively.
